Assay results reported in the supplement of paper PMC10724198.
± gives the standard deviation of the averaged measurements.

Tested on: Saccharomyces cerevisiae
Assay: protein stability index of tFT-peptide fusion (C-terminal peptide) (PSI (0-1 scale)); higher = more stable (slower turnover)
Details: genetic background: wild type; temperature: 30 C
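Also: PSI is a weighted mean of sequencing reads over stability bins, variants kept only with over 10 reads, mCherry proximal and sfGFP distal, peptide attached via GGGS linker.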

PPSLPLLLPPCT
protein stability index: 0.649 ± 0.019

PPSLPPLFLRAP
protein stability index: 0.667 ± 0.0091

PPSLPPLPFSTP
protein stability index: 0.7352 ± 0.0065

PPSLPPLSPPLA
protein stability index: 0.736 ± 0.02

PPSNAFEETLRT
protein stability index: 0.7 ± 0.015

PPSPLPQPRPQT
protein stability index: 0.695 ± 0.014

PPSPPPPPASPP
protein stability index: 0.6805 ± 0.0015

PPSPPPVRPHPP
protein stability index: 0.587 ± 0.068

PPSPPSPPPSAP
protein stability index: 0.704 ± 0.0093

PPSPRLFRFLPP
protein stability index: 0.631 ± 0.074

PPSPSPPSPPPP
protein stability index: 0.656 ± 0.007

PPSPSPPSPPSP
protein stability index: 0.654 ± 0.032

PPSQRPPPPPPL
protein stability index: 0.704 ± 0.023

PPSRPLSVLPPP
protein stability index: 0.6863 ± 0.0055

PPSSPALPSDTP
protein stability index: 0.694 ± 0.013

PPSSPCLRPSPP
protein stability index: 0.683 ± 0.037

PPSSPPPTIPAH
protein stability index: 0.642 ± 0.029

PPSSRPPVRSPP
protein stability index: 0.6903 ± 0.0014

PPSSSPPHTPFP
protein stability index: 0.6557 ± 0.0011

PPSTPPPSPPTP
protein stability index: 0.725 ± 0.072

PPSTRPYRLFPL
protein stability index: 0.682 ± 0.048

PPSVPTPCPVPI
protein stability index: 0.696 ± 0.067

PPSWTPPSPLPL
protein stability index: 0.727 ± 0.06

PPTFPPHSYLHP
protein stability index: 0.652 ± 0.043

PPTLPFSARSPP
protein stability index: 0.659 ± 0.036

PPTLPVPSPSPL
protein stability index: 0.822 ± 0.25

PPTPHPSTPALP
protein stability index: 0.714 ± 0.075

PPTPPPPSPLAP
protein stability index: 0.73 ± 0.034

PPTSPPLAPPPL
protein stability index: 0.643 ± 0.062

PPTVSRPPHLPT
protein stability index: 0.69 ± 0.048

PPVLQPLLALAL
protein stability index: 0.535 ± 0.015

PPVLVPAHHRPD
protein stability index: 0.651 ± 0.014

PPVPDSFAAFLR
protein stability index: 0.743 ± 0.089

PPVPPPHASPAP
protein stability index: 0.709 ± 0.05

PPVPPPLPSPPP
protein stability index: 0.712 ± 0.025

PPVRRPAHATTG
protein stability index: 0.722 ± 0.038

PPVSHPSPFPLP
protein stability index: 0.653 ± 0.0095

PPWPLVVQPSPP
protein stability index: 0.703 ± 0.041

PPYAPSPSPPSH
protein stability index: 0.6936 ± 0.0029

PPYPLHPARPPY
protein stability index: 0.702 ± 0.036

PPYPPETPPVHP
protein stability index: 0.724 ± 0.037

PPYPPGLPSLPP
protein stability index: 0.689 ± 0.043

PQGAYLFTSTCI
protein stability index: 0.753 ± 0.054

PQGGREYIYSPQ
protein stability index: 0.718 ± 0.019

PQHFARSITPPP
protein stability index: 0.64 ± 0.097

PQPPFTHGLIPS
protein stability index: 0.706 ± 0.023

PQPPLYPPPSLP
protein stability index: 0.675 ± 0.036

PQPPPRSPPSYL
protein stability index: 0.75 ± 0.049

PQSKWQWHSGLT
protein stability index: 0.692 ± 0.065

PQSPVCDLESRL
protein stability index: 0.666 ± 0.11

PRAHIDWALTVM
protein stability index: 0.548 ± 0.065

PRALLPPSPPSP
protein stability index: 0.635 ± 0.09

PRAPQNEHQTKG
protein stability index: 0.667 ± 0.059

PRASSPPPPTAS
protein stability index: 0.666 ± 0.024

PRCCDIEIESGR
protein stability index: 0.68 ± 0.027

PRDSLMRLDCRL
protein stability index: 0.691 ± 0.022

PRDSPPPPPPPP
protein stability index: 0.699 ± 0.027

PREFLVYDGVRV
protein stability index: 0.6382 ± 0.0059

PRFPLPLPPPSP
protein stability index: 0.7356 ± 0.0037

PRHGSPASPRPP
protein stability index: 0.636 ± 0.086

PRHPLAPLPLPS
protein stability index: 0.724 ± 0.026

PRIGEARNLCYK
protein stability index: 0.6816 ± 0.006

PRIGPAPLPRLS
protein stability index: 0.714 ± 0.043

PRKTRSTTTRKS
protein stability index: 0.593 ± 0.038

PRLHRRPAYTFI
protein stability index: 0.606 ± 0.022

PRLLPSTCEREV
protein stability index: 0.618 ± 0.066

PRLLSTYAGSKW
protein stability index: 0.723 ± 0.012

PRLPLPSRPSPR
protein stability index: 0.655 ± 0.064

PRLPSPPGAPPP
protein stability index: 0.726 ± 0.011

PRLSPLPPPSFP
protein stability index: 0.628 ± 0.045

PRNPLFSPPLPD
protein stability index: 0.752 ± 0.0099

PRPGPPPPPPSP
protein stability index: 0.713 ± 0.035

PRPLALPFCKLW
protein stability index: 0.808 ± 0.14

PRPLPAPPQRNL
protein stability index: 0.628 ± 0.017

PRPPLPHQRPRS
protein stability index: 0.746 ± 0.13

PRPPRSPLPSSL
protein stability index: 0.7 ± 0.041

PRPQTSAHAETG
protein stability index: 0.644 ± 0.022

PRPRPRSGWILL
protein stability index: 0.696 ± 0.036

PRRFPPPSPSPP
protein stability index: 0.713 ± 0.085

PRRPAFPPPGLP
protein stability index: 0.705 ± 0.072

PRRQDSRLEQPD
protein stability index: 0.713 ± 0.0077
